Measured values taken from the RNAGym collection of RNA variant scans (doi:10.7554/elife.80360).

B1: HDV Ribozyme (parent)
chain: GGCCGGCAUGGUCCCAGCCUCCUCGCUGGCGCCGGCUGGGCAACAUUCCGAGGGGACCGUCCCCUCGGUAAUGGCGAAUGGGACCCA
B2: CPEB3 Ribozyme (parent)
chain: GGGGGCCACAGCAGAAGCGUUCACGUCGCGGCCCCUGUCAGAUUCUGGUGAAUCUGCGAAUUCUGCUGU

Variants of: B1
Assay: self-cleavage, relative activity (ratio to wild type); higher = more cleavage; co-transcriptional

Variant | self-cleavage
C84A C85G | 0.519
C85U C86U | 0.895
C85G C86U | 0.858
G80U C86A | 0.239
G80U C86U | 0.281
G81A C84A | 0.339
G82C A87C | 0.28
G82C A87G | 0.185
A83G C85A | 0.677
A83G C85G | 1.12
G82A A87C | 0.583
G82A A87U | 0.443
G82A A87G | 0.342
C85A A87U | 1.06
C85A A87C | 0.862
G81C G82U | 0.287
G82A A83U | 0.376
G81U C84U | 0.228
G81U C84G | 0.0923
C85U A87C | 0.933
C85U A87G | 0.963
G81A C86G | 0.45
G81A C86U | 0.546
G82U C86A | 0.793

Variant | self-cleavage
C84U | 0.804
C84G | 0.688
C84A | 0.895
G82U C85A | 0.256
G82U C85U | 0.451
G82U C85G | 0.446
G82U A87G | 0.387
C86U A87G | 0.942
C86U A87C | 0.926
G82C C84A | 0.383
C84G A87U | 0.842
C84U C86U | 0.604
C84U C86G | 0.907
G81A C85G | 0.175
G80U G82A | 0.0297
G80U G82U | 0.147
G81A A87C | 0.455
C86A A87C | 0.855
C86A A87G | 0.804
A83U A87G | 0.531
A83U A87U | 0.507
A83U A87C | 0.751
G82A C84A | 0.399
G81C A87U | 0.265

Variant | self-cleavage
G81C A87C | 0.269
G81C A87G | 0.306
C85G A87G | 0.919
G82A C85G | 0.339
A83C | 0.458
A83U | 0.523
A83G | 0.806
G82A C86A | 0.729
G82A C86U | 0.522
A83G C86G | 0.807
A83G C86A | 0.941
A83G C86U | 1.08
G80U G81C | 0.199
G82C C86G | 0.194
C84A A87G | 0.61
A87U | 1.03
A87C | 1.01
A87G | 0.984
G81C C84U | 0.141
G81C C84G | 0.256
A83C C85G | 0.175
A83C C85U | 0.268
A83C C85A | 0.534
G82C A83C | 0.284

Variant | self-cleavage
G82C A83U | 0.237
G82U C84A | 0.261
G82U C84U | 0.133
C84U A87C | 0.749
C84U A87U | 0.946
G81U A87G | 0.291
G81U A87C | 0.444
G81U C86G | 0.27
G81U C86U | 0.767
A83C A87G | 0.302
C84A C86A | 0.712
G81A G82A | 0.201
G81A G82C | 0.163
G81A G82U | 0.225
C86G A87C | 1.04
G82C C85G | 0.119
G82C C85U | 0.18
G82C C85A | 0.147
G81U C85G | 0.212
G81U C85A | 0.389
G81U C85U | 0.31
A83U C85A | 0.237
A83U C85G | 0.208
C85A C86G | 0.791

Variant | self-cleavage
C85A C86U | 1.05
C84G C85G | 0.26
A83G C84A | 1.02
A83G C84G | 0.95
G81A A83G | 0.236
C84U C85A | 0.877
C84U C85U | 0.604
C84U C85G | 0.923
G81C C85A | 0.213
G81C C85G | 0.128
G82U A83C | 0.18
C84G C86A | 0.764
C84G C86U | 0.675
G81C C86U | 0.302
G81C C86A | 0.554
G81U A83C | 0.0821
A83C C86U | 0.376
A83C C86G | 0.254
A83G A87C | 0.906
G81U G82U | 0.211
G81U G82A | 0.277

Variants of: B2
Assay: as above

Variant | self-cleavage
G1U C63G | 0.111
G1A C35G | 0.053
G1C U38A | 0.267
G1A C33A | 0.0757
G1U G47C | 0.0959
G2A A52C | 0.167
G1A G58U | 0.0885
G1U U61C | 0.117
G1U C66U | 0.127
G1A U53G | 0.0671
G1A U53A | 0.0419
G1A U53C | 0.0532
G1U A8G | 0.0916
G2A A23U | 0.284
G2A A42G | 0.196
G1U G50A | 0.139
G1U G19C | 0.0611
G1U G19U | 0.0505
G1U G30A | 0.0902
G1U C33U | 0.214
G1U C33G | 0.102
G1A C29A | 0.061
G1C G14C | 0.152
G1U A15U | 0.0945
G1C C7U | 0.172

Variant | self-cleavage
G1C C18A | 0.035
G1C C18U | 0.167
G1C C18G | 0.0551
G1A G11C | 0.0395
G1A A51G | 0.0779
G1A A51C | 0.114
G1U U46C | 0.0797
G1C C39A | 0.174
G1U G28U | 0.0723
G1C U26A | 0.165
G1U G37U | 0.0468
G1U G37C | 0.0508
G1U U36A | 0.0485
G1A G2U | 0.332
G1A G2A | 0.302
G1A G2C | 0.265
G1U U26A | 0.0674
G1U U26G | 0.0529
G1A U55G | 0.0876
G2A A40G | 0.105
G2A A40C | 0.0341
G1C C57U | 0.07
G1U C9A | 0.181
G1C U49A | 0.287
G1A C66A | 0.0751
